Test results from patent US20230212268A1 (UNM RAINFOREST INNOVATIONS, published 2023).

Legend:
[1] = biological target: T1, recombinant EBOV glycoprotein (EBOV (Zaire ebolavirus), UniProt Q05320 33-650)
T1 sequence: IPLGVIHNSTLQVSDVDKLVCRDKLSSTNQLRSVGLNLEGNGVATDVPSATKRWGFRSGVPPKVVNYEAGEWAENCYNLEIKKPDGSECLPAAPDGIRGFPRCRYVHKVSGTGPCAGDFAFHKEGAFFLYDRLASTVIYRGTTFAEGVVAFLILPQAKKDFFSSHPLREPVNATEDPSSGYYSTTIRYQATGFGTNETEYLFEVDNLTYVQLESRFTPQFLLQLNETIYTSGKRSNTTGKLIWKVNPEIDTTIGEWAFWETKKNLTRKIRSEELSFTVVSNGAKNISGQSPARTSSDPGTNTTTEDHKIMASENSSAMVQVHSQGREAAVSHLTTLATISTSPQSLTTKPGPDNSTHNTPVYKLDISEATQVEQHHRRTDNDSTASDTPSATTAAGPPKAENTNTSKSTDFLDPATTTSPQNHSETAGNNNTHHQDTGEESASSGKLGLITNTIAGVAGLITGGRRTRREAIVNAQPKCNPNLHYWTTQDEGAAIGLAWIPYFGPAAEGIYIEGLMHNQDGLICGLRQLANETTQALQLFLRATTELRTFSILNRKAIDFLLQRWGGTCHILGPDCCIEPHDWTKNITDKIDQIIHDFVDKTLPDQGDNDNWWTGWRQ

[2] = biological target: recombinant BDBV glycoprotein (BDBV (Bundibugyo ebolavirus)); assay: ELISA dose response, GP coated
[3] = biological target: recombinant BDBV glycoprotein (BDBV (Bundibugyo ebolavirus)); assay: ELISA dose-response fit, reference scFv22-1
[4] = biological target: T1, recombinant EBOV glycoprotein; assay: maximal binding from ELISA dose-response fit
[5] = biological target: T2, recombinant SUDV glycoprotein (SUDV (Sudan ebolavirus), UniProt Q7T9D9 33-650); assay: maximal binding from ELISA dose-response fit
T2 sequence: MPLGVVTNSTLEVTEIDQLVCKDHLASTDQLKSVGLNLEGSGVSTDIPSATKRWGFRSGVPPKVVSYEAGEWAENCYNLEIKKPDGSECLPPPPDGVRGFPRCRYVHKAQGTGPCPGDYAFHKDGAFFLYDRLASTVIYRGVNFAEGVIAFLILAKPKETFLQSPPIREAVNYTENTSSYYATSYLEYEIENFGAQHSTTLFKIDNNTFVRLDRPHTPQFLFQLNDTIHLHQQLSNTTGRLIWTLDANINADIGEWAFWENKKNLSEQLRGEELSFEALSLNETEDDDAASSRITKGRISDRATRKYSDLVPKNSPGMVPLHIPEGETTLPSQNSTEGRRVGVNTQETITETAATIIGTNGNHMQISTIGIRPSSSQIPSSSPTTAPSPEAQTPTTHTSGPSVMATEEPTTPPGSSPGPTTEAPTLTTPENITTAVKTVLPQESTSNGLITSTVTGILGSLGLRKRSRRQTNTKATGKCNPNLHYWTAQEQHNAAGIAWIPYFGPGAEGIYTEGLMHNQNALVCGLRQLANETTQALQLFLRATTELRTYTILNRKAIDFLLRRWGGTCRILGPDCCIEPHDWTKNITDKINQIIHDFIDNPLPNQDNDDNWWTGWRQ

[6] = biological target: T3, recombinant RESTV glycoprotein (RESTV (Reston ebolavirus), UniProt Q66799 34-651); assay: maximal binding from ELISA dose-response fit
T3 sequence: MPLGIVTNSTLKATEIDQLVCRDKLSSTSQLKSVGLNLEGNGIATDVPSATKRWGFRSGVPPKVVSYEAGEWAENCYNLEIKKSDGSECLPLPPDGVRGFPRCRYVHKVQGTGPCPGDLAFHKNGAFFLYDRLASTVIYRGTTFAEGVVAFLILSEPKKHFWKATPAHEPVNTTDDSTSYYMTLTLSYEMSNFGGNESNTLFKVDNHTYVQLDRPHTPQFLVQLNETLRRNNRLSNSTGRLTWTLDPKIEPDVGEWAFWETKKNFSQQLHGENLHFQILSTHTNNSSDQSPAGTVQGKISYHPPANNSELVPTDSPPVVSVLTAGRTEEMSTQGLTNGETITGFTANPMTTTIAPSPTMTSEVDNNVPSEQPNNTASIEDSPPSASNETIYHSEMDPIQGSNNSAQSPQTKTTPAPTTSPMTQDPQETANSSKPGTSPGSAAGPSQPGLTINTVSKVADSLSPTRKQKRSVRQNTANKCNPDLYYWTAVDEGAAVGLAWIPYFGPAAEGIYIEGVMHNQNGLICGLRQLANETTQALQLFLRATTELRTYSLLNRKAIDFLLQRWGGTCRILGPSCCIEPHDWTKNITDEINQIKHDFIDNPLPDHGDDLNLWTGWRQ

[7] = biological target: T4, recombinant MARV glycoprotein (MARV (marburgvirus, Ravn), UniProt Q1PDC7 19-648); assay: maximal binding from ELISA dose-response fit
T4 sequence: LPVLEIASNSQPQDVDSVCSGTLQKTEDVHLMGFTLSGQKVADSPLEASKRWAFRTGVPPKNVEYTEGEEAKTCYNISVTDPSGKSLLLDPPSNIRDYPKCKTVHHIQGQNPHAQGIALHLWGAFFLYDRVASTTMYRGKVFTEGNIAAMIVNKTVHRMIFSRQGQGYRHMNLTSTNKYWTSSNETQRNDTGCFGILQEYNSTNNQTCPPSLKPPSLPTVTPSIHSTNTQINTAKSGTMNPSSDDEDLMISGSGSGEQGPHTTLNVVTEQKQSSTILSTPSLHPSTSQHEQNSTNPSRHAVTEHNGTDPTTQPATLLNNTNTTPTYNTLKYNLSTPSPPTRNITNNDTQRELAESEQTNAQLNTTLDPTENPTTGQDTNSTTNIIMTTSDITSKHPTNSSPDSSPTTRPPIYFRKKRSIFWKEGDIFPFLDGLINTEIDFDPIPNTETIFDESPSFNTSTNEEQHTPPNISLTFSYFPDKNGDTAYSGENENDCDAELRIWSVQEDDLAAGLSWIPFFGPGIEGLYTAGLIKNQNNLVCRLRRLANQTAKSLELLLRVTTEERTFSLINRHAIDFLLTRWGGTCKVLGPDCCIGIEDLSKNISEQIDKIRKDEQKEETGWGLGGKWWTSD

B1: EbovGPscFv4-2 (scFv)
scFv: MAWSHPQFEKTGSGGAELVKSGASVKLSCTASGFNIKDDYMHWVKQRPEQGLEWIGWIDPENGDTEYASKFQGKATITADTSSNTAYLQLSSLTSEDTAVYYCTTYYYGSAWFAYWGQGTLVTVSAGGGGSGGGGSGGGGSGGGGSASLSVSVGETVTITCRASGNIHNYLAWYQQKQGKSPQLLVYNAKTLADGVPSRFSGSGSGTQYSLKINNLQPEDFGSYYCQHFWSTPYTFGGGTKLEIKRADAAPTVSIFPPSSEQLTSGGASVVCFLNNFTHCQELQQDECS
B1 was tested, and the EC50 [1] was 4 µg/mL, the EC50 [2] was 8.19 µg/mL and the fold affinity against scFv22-1 [3] was 2 fold. The Bmax signal [4] was 350000 relative absorbance units, the Bmax signal [5] was 280000 relative absorbance units and the Bmax signal [6] was 210000 relative absorbance units. For the same binder, the Bmax signal [7] was 380000 relative absorbance units.
